Results published in doi:10.64898/2025.12.03.692134 (bioRxiv, 2025).

T1: Torpedo nicotinic acetylcholine receptor δ subunit (Tetronarce californica (Pacific …, UniProt P02718 22-522))
T1 sequence: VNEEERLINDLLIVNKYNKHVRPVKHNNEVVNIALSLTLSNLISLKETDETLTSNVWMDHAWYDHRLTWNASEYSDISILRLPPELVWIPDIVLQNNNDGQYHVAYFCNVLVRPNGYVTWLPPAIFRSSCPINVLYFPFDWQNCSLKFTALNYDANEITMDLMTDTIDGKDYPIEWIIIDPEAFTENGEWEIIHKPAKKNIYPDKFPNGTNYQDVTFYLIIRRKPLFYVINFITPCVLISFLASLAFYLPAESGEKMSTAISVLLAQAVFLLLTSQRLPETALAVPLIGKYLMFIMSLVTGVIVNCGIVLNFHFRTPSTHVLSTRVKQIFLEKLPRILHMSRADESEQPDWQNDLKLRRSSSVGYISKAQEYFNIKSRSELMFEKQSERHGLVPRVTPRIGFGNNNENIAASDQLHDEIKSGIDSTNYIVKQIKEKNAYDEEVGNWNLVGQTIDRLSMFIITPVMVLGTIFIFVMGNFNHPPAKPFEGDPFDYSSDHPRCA

B1: Torpedo nicotinic acetylcholine receptor α subunit (receptor)
chain: SEHETRLVANLLENYNKVIRPVEHHTHFVDITVGLQLIQLISVDEVNQIVETNVRLRQQWIDVRLRWNPADYGGIKKIRLPSDDVWLPDLVLYNNADGDFAIVHMTKLLLDYTGKIMWTPPAIFKSYCEIIVTHFPFDQQNCTMKLGIWTYDGTKVSISPESDRPDLSTFMESGEWVMKDYRGWKHWVYYTCCPDTPYLDITYHFIMQRIPLYFVVNVIIPCLLFSFLTGLVFYLPTDSGEKMTLSISVLLSLTVFLLVIVELIPSTSSAVPLIGKYMLFTMIFVISSIIITVVVINTHHRSPSTHTMPQWVRKIFIDTIPNVMFFSTMKRASKEKQENKIFADDIDISDISGKQVTGEVIFQTPLIKNPDVKSAIEGVKYIAEHMKSDEESSNAAEEWKYVAMVIDHILLCVFMLICIIGTVSVFAGRLIELSQEG
B2: Torpedo nicotinic acetylcholine receptor β subunit (receptor)
chain: SVMEDTLLSVLFETYNPKVRPAQTVGDKVTVRVGLTLTNLLILNEKIEEMTTNVFLNLAWTDYRLQWDPAAYEGIKDLRIPSSDVWQPDIVLMNNNDGSFEITLHVNVLVQHTGAVSWQPSAIYRSSCTIKVMYFPFDWQNCTMVFKSYTYDTSEVTLQHALDAKGEREVKEIVINKDAFTENGQWSIEHKPSRKNWRSDDPSYEDVTFYLIIQRKPLFYIVYTIIPCILISILAILVFYLPPDAGEKMSLSISALLAVTVFLLLLADKVPETSLSVPIIIRYLMFIMILVAFSVILSVVVLNLHHRSPNTHTMPNWIRQIFIETLPPFLWIQRPVTTPSPDSKPTIISRANDEYFIRKPAGDFVCPVDNARVAVQPERLFSEMKWHLNGLTQPVTLPQDLKEAVEAIKYIAEQLESASEFDDLKKDWQYVAMVADRLFLYVFFVICSIGTFSIFLDASHNVPPDNPFA

Columns and labels:
[1] = molecular target: B2; test: cryo-EM structure
[2] = molecular target: T1, Torpedo nicotinic acetylcholine …; test: cryo-EM structure

Binder	binding result [1]	binding result [2]
B1	binds	
B2		binds
